Reference: paper doi:10.64898/2025.12.11.693622 (bioRxiv, 2025)
Values joined by “and” are separate entries in the source; they are usually repeats but may differ in a detail not shown here. Identical values can stand only once.

Experiments:
[1] = biological target: the molecule itself; experiment: crystal structure
[2] = biological target: the molecule itself; experiment: SEC-MALS
[3] = biological target: the molecule itself; experiment: cross-linking
[4] = biological target: the molecule itself; experiment: AUC + SEC

B1: CCDC127 coiled-coil domain (CCDC127^CC, residues 48-120), wild type (domain or fragment, human, UniProt Q96BQ5 48-120, looked up)
chain: SQKEVEKEREAYRRRTAAFQQDLEAKYHAMISENRRAVAQLSLELEKEQNRTASYREALISQGRKLVEEKKLL
[1]
  stoichiometry N: 2 and 4

B2: MBP-tagged complete IMS domain of CCDC127, C144S with L176S/F177S/V222S/W223S (MBP-CC-CHB^C144STip, residues 48-260) (domain or fragment, human, UniProt Q96BQ5 48-260, looked up)
chain: SQKEVEKEREAYRRRTAAFQQDLEAKYHAMISENRRAVAQLSLELEKEQNRTASYREALISQGRKLVEEKKLLEQERAQVMQEKRQVQPLRSAYLSSLQREENWQRRARLLLKEFEAVLTERQNIYCSSSLPRSKRLEIEKSLLVRASVDPVAADLEMAAGLTDIFQHDTYCGDSSNTNKRQNGRLMWLYLKYWELVVELKKFKRVEEAILEK
[2]
  stoichiometry N: 2 to 3

B3: MBP-tagged complete IMS domain of CCDC127, C144S (MBP-CC-CHB^C144S, residues 48-260) (domain or fragment, human, UniProt Q96BQ5 48-260, looked up)
chain: SQKEVEKEREAYRRRTAAFQQDLEAKYHAMISENRRAVAQLSLELEKEQNRTASYREALISQGRKLVEEKKLLEQERAQVMQEKRQVQPLRSAYLSSLQREENWQRRARLLLKEFEAVLTERQNIYCSLFLPRSKRLEIEKSLLVRASVDPVAADLEMAAGLTDIFQHDTYCGDVWNTNKRQNGRLMWLYLKYWELVVELKKFKRVEEAILEK
[2]
  stoichiometry N: 2

B4: CCDC127 WT-HA (full-length CCDC127 with HA tag) (natural protein, human, UniProt Q96BQ5 1-260, looked up)
chain: MNNLNDPPNWNIRPNSRADGGDGSRWNYALLVPMLGLAAFRWIWSRESQKEVEKEREAYRRRTAAFQQDLEAKYHAMISENRRAVAQLSLELEKEQNRTASYREALISQGRKLVEEKKLLEQERAQVMQEKRQVQPLRSAYLSCLQREENWQRRARLLLKEFEAVLTERQNIYCSLFLPRSKRLEIEKSLLVRASVDPVAADLEMAAGLTDIFQHDTYCGDVWNTNKRQNGRLMWLYLKYWELVVELKKFKRVEEAILEK
[3]
  stoichiometry N: 2

B5: CCDC127^1-134-HA (N-terminal variant with the coiled-coil, lacking the C-terminal domain) (domain or fragment, human, UniProt Q96BQ5 1-134, looked up)
chain: MNNLNDPPNWNIRPNSRADGGDGSRWNYALLVPMLGLAAFRWIWSRESQKEVEKEREAYRRRTAAFQQDLEAKYHAMISENRRAVAQLSLELEKEQNRTASYREALISQGRKLVEEKKLLEQERAQVMQEKRQV
[3]
  stoichiometry N: 2

B6: CCDC127^135-260-HA (C-terminal helical bundle domain) (domain or fragment, human, UniProt Q96BQ5 135-260, looked up)
chain: QPLRSAYLSCLQREENWQRRARLLLKEFEAVLTERQNIYCSLFLPRSKRLEIEKSLLVRASVDPVAADLEMAAGLTDIFQHDTYCGDVWNTNKRQNGRLMWLYLKYWELVVELKKFKRVEEAILEK
[3]
  stoichiometry N: 2

B7: CCDC127^CC D69A (residues 48-120) (domain or fragment, human, UniProt Q96BQ5 48-120, looked up)
chain: SQKEVEKEREAYRRRTAAFQQALEAKYHAMISENRRAVAQLSLELEKEQNRTASYREALISQGRKLVEEKKLL
[4]
  stoichiometry N: 2

B8: CCDC127^CC-K73A (residues 48-120) (domain or fragment, human, UniProt Q96BQ5 48-120, looked up)
chain: SQKEVEKEREAYRRRTAAFQQDLEAAYHAMISENRRAVAQLSLELEKEQNRTASYREALISQGRKLVEEKKLL
[4]
  stoichiometry N: 4

B9: MBP-tagged C-terminal helical bundle of CCDC127, C144S variant (MBP-CHB^C144S, residues 137-260) (domain or fragment, human, UniProt Q96BQ5 137-260, looked up)
chain: LRSAYLSSLQREENWQRRARLLLKEFEAVLTERQNIYCSLFLPRSKRLEIEKSLLVRASVDPVAADLEMAAGLTDIFQHDTYCGDVWNTNKRQNGRLMWLYLKYWELVVELKKFKRVEEAILEK
[2]
  stoichiometry N: 2

B10: MBP-tagged C-terminal helical bundle of CCDC127, C144S with L176S/F177S/V222S/W223S (MBP-CHB^C144STip, residues 137-260) (domain or fragment, human, UniProt Q96BQ5 137-260, looked up)
chain: LRSAYLSSLQREENWQRRARLLLKEFEAVLTERQNIYCSSSLPRSKRLEIEKSLLVRASVDPVAADLEMAAGLTDIFQHDTYCGDSSNTNKRQNGRLMWLYLKYWELVVELKKFKRVEEAILEK
[2]
  stoichiometry N: 2
